Test results as given in PMC9738063, “Ethylene Response Factor MaERF012 Modulates Fruit Ripening by Regulating Chlorophyll Degradation and Softening in Banana”.

B1: MaAMY3 probe (dsDNA)
DNA 1: CGGACTCACGCCACACCACAGCCGCCCCTGACGCAATTAGCGTCGA
DNA 2: TCGACGCTAATTGCGTCAGGGGCGGCTGTGGTGTGGCGTGAGTCCG
B2: MaEXP-A8 probe (dsDNA)
DNA 1: GTTGGTTCATAAGGTGCTCCGGCGGCATGTGCTGCAGACACGAAGT
DNA 2: ACTTCGTGTCTGCAGCACATGCCGCCGGAGCACCTTATGAACCAAC
B3: MaPL8 probe (dsDNA)
DNA 1: ATATCTGTGTGCTCTTGCGAGGCGGCTGGACTTTCCTGCACGCAAT
DNA 2: ATTGCGTGCAGGAAAGTCCAGCCGCCTCGCAAGAGCACACAGATAT
B4: MaSGR1 probe (dsDNA)
DNA 1: ATCATATTTCTGAATTAAGGTACTGGCGGCACATCGATATGGTATC
DNA 2: GATACCATATCGATGTGCCGCCAGTACCTTAATTCAGAAATATGAT
B5: MaGWD1 probe (dsDNA)
DNA 1: CTAATCACATGATGGTGTGTGGCCGCCATCATTCTCTCCCAAGCAACC
DNA 2: GGTTGCTTGGGAGAGAATGATGGCGGCCACACACCATCATGTGATTAG
B6: MaXYL23-like probe (dsDNA)
DNA 1: GGCAATCAGTCGGAGGAGGAGCCGCCCGATTTGGTGCACTATCATC
DNA 2: GATGATAGTGCACCAAATCGGGCGGCTCCTCCTCCGACTGATTGCC

molecular target: GST-MaERF012 (Musa acuminata 'Fenjiao' banana, UniProt A0A804KA32 1-188); test: EMSA; LightShift Chemiluminescent EMSA Kit; buffer, salt, pH and temperature not stated; conditions: protein: recombinant; tags: N-terminal GST (pGEX-4T-1); label: biotin 3' end; blunt
Sequence (A0A804KA32 entry or part of it): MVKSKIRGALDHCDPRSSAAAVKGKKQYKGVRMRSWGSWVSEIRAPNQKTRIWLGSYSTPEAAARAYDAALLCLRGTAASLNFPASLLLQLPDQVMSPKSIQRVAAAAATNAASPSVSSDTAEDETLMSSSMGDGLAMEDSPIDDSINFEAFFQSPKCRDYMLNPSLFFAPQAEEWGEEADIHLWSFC

Binding result, binds:
B1, B2, B3, B4, B5, B6
